According to US20220332804A1 (CSL INNOVATION, published 2022):

Assays:
Assay in all cases: SPR, mAb captured, C2 mutant analyte;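 note: Anti-C2 mAbs captured on goat anti-human IgG Biacore CM5 chips, alanine or serine C2 surface mutants flowed over at 37 °C, double-referenced sensorgrams fitted to a 1:1 binding model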
human C2 I272A = target: T1, human C2 I272A (human, UniProt P06681 21-752)
T1 sequence: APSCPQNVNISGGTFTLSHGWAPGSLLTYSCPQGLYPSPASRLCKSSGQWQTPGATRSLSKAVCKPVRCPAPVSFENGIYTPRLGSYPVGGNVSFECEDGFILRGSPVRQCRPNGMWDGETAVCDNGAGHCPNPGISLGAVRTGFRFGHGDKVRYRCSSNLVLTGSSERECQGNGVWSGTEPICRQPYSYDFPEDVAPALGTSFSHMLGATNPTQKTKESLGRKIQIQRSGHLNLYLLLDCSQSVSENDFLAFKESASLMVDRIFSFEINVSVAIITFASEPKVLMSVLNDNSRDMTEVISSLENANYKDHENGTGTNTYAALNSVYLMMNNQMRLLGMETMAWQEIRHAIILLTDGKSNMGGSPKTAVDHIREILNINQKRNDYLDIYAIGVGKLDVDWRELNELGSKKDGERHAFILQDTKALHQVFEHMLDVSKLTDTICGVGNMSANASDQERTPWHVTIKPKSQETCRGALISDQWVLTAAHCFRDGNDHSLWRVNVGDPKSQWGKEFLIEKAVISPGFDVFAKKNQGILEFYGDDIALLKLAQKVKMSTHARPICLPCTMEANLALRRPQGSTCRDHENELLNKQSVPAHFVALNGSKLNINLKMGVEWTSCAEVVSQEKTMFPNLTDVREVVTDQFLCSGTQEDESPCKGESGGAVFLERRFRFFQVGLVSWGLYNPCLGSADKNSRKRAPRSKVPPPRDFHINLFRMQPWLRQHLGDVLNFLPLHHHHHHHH

human C2 N327A = target: T2, human C2 N327A (human, UniProt P06681 21-752)
T2 sequence: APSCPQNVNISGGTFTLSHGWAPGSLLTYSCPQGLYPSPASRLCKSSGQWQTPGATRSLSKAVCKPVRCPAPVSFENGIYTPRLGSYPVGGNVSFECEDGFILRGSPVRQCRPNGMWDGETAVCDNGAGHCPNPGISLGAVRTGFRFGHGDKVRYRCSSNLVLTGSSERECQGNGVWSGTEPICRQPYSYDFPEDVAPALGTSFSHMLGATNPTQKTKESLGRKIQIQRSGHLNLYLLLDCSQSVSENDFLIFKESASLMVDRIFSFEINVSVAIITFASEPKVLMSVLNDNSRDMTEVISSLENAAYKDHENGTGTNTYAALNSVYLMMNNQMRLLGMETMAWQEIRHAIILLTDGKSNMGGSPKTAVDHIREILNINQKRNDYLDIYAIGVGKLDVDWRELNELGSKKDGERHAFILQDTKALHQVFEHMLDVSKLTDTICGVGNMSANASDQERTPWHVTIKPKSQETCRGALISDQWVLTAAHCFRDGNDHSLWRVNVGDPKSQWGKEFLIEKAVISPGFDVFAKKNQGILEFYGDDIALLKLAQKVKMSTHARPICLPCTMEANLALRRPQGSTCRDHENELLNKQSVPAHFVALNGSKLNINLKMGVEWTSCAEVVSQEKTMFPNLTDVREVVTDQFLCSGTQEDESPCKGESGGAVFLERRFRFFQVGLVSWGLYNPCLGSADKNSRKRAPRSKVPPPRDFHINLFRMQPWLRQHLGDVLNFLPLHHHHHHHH

human C2 A436S = target: T3, human C2 A436S (human, UniProt P06681 21-752)
T3 sequence: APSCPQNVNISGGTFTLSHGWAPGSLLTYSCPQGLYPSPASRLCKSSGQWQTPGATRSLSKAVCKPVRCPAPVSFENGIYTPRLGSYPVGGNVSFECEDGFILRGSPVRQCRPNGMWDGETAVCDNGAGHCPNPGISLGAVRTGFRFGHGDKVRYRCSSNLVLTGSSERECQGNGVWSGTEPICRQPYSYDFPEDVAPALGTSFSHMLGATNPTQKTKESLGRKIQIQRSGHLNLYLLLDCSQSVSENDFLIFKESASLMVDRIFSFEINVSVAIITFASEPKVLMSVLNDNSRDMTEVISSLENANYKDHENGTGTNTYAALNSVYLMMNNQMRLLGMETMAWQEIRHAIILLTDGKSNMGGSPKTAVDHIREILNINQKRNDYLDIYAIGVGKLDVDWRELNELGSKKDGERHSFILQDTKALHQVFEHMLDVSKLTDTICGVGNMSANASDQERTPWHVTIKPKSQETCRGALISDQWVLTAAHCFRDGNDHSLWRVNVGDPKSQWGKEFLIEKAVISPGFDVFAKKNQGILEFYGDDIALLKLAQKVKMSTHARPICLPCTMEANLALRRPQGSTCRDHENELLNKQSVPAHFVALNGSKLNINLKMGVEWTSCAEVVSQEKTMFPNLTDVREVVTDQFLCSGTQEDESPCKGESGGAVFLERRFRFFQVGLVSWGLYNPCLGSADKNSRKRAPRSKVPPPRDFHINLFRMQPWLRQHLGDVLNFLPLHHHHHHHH

human C2 R493A = target: T4, human C2 R493A (human, UniProt P06681 21-752)
T4 sequence: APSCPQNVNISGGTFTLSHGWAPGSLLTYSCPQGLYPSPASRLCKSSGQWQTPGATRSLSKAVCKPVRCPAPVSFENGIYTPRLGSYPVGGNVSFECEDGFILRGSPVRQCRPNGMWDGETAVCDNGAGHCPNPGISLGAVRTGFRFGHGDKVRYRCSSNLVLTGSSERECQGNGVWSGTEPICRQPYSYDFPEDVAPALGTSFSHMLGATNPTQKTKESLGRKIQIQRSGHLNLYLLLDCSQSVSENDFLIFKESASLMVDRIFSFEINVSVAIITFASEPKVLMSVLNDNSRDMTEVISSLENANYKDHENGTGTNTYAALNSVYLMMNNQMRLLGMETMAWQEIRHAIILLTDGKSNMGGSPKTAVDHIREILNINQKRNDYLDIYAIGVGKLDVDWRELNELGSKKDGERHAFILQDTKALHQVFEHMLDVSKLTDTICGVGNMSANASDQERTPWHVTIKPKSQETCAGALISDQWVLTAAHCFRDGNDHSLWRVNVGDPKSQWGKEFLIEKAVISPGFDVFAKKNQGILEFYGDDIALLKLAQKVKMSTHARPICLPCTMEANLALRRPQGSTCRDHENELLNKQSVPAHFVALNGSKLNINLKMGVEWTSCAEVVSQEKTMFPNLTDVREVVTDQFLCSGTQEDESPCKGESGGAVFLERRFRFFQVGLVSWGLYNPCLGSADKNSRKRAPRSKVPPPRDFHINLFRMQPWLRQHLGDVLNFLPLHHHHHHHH

B1: RF16-214 (antibody, V domains shown)
VH: EVQLLESGGGLVQPGGSLRLSCAASGFTFSWYQMMWVRQAPGKGLEWVSRIYPSGGGTAYADSVKGRFTISRDNSKNTLYLQMNSLRAEDTAVYYCARDAGYGDNWGQGTLVTVSS
VL: QSALTQPPSVSVSPGQTASITCSGDKLGEKYASWYQQKAGQSPVMVIYQDRKRPSGIPERFSGSNSGNTATLTISGTQAMDEADYYCQAWDTRAVVFGGGTKLTVLG
Human C2 I272A
  Kd: 477 nM
Human C2 N327A
  Kd: 205 nM
Human C2 A436S
  Kd: 31.2 nM
Human C2 R493A
  Kd: 25.3 nM
